Two molecules from patent publication US20240261333A1 (published 2024) can be followed below.

Common to all, as to assay: co-IP with anti-FLAG, C-FLAG B3GNT2, mass spectrometry
The target in experiment [1] is T1, FLG (human, UniProt P20930 1-4061, limits assumed).
T1 construct: also called NP_002007.1
As for the experimental part: (§1) Cells were plated in 10-cm cell culture dishes and grown to 60-80% confluency. For each condition, two biological replicates were harvested for co-IP. Cells were washed with PBS and 4 mL of lysis buffer (20 mM HEPES, 1% Triton X-100, 150 mM NaCl, 1 mM EDTA, and 10% glycerol) containing protease inhibitor cocktail was added. Cells were scraped and lysate was incubated at 4° C. under rotary agitation for 1 h. Lysate was centrifuged at 14,000×g for 10 min at 4° C. Supernatant was transferred to a new tube and an aliquot was taken as the input. […] For Western blots, 10 μg/mL Chicken Anti-FLAG (Aves labs ET-DY100) and IgY control (R&D Systems AB-101-C) antibodies were biotinylated (Thermo Fisher Scientific 90407) and added to the respective conditions. Lysates with antibodies were incubated at 4° C. under rotary agitation overnight. For each mL of lysate, 50 μL of Pierce Protein A/G Magnetic Beads (Mass spectrometry; Thermo Fisher Scientific 88803) or Pierce Streptavidin Magnetic Beads (Western blot; Thermo Fisher Scientific 88817) was washed twice with lysis buffer. Lysates with antibodies were added to the beads and incubated at 4° C. under rotary agitation for 4 h. Beads were washed with lysis buffer 3 times and resuspended in lysis buffer for storage.
(§2) Magnetic beads were resuspended in 100 mM Tris pH 7.8, reduced, alkylated and digested with trypsin at 37° ° C. overnight. This solution was subjected to solid phase extraction to concentrate the peptides and remove unwanted reagents followed by injection onto a Shimadzu HPLC with fraction collector. Eight fractions were collected and after concentration were injected on a Waters NanoAcquity HPLC equipped with a self-packed Aeris 3 μm C18 analytical column 0.075 mm by 20 cm, (Phenomenex). Peptides were eluted using standard reverse-phase gradients. The effluent from the column was analyzed using a Thermo Orbitrap Elite mass spectrometer (nanospray configuration) operated in a data dependent manner for 54 minutes. The resulting fragmentation spectra were correlated against the known database using Proteome Discover 1.4 (Thermo Fisher Scientific).

The target of experiment [2] is T2, PKM (human, UniProt P14618 2-531, limits assumed).
T2 construct: also called NP_001193725.1 (+3)
On the procedure: as §1, §2

Experiment [3] addresses T3, S100A7 (human, UniProt P31151 2-101).
T3 construct: also called NP_002954.2
T3 sequence (looked up): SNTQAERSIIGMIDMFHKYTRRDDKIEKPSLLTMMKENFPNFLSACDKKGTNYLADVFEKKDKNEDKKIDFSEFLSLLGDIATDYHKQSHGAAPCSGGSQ
As for the experimental part:
as §1, §2

Experiment [4] has as its target T4, YBX1 (human, UniProt P67809 2-324).
T4 construct: also called NP_004550.2
On the procedure:
as §1, §2

Experiment [5] deals with T5, SBSN (human, UniProt Q6UWP8 26-590).
T5 construct: also called NP_00159506.1 (+2)
T5 sequence (looked up): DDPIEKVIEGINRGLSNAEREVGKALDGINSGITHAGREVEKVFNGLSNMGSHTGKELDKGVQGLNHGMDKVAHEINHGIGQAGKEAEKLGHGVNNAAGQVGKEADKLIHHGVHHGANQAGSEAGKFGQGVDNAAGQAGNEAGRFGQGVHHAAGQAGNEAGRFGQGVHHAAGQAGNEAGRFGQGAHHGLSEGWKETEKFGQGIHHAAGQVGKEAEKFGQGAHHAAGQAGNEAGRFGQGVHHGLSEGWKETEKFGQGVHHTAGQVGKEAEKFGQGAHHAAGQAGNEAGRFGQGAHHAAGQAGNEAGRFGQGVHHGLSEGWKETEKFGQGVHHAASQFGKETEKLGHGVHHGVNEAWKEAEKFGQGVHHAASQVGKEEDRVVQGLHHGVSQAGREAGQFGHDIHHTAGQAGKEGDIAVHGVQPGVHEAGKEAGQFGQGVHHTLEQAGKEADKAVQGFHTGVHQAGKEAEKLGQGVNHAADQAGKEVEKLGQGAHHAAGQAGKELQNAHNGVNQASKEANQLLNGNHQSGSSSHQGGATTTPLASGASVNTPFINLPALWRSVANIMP
As for the experimental part:
as §1, §2

Experiment [6] addresses RPL17 (human, UniProt P18621 2-184). As for the experimental part:
as §1, §2

Experiment [7] concerns the target T6, PUF60 (human, UniProt Q9UHX1 1-559, limits assumed).
T6 construct: also called NP_016868724.1
T6 sequence (looked up): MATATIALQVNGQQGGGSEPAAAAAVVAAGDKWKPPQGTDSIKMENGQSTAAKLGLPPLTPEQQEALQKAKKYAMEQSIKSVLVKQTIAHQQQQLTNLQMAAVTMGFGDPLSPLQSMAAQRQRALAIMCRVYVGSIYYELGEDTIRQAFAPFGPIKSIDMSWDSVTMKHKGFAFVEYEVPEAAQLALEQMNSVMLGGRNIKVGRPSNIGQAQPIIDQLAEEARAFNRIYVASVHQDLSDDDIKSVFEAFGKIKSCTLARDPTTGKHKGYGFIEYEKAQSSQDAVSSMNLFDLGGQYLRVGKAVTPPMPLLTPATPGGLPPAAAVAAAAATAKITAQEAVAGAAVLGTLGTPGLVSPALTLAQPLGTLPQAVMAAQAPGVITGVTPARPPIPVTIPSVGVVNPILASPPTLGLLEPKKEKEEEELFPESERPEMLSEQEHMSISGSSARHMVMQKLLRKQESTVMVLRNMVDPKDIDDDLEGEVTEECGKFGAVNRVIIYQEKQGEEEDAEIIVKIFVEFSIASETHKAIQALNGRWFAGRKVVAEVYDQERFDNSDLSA
On the procedure:
as §1, §2

Experiment [8] has as its target T7, DDX17 (human, UniProt Q92841 1-729, limits assumed).
T7 construct: also called NP_001091974.1
On the procedure: as §1, §2

T1 sequence (P20930 whole entry): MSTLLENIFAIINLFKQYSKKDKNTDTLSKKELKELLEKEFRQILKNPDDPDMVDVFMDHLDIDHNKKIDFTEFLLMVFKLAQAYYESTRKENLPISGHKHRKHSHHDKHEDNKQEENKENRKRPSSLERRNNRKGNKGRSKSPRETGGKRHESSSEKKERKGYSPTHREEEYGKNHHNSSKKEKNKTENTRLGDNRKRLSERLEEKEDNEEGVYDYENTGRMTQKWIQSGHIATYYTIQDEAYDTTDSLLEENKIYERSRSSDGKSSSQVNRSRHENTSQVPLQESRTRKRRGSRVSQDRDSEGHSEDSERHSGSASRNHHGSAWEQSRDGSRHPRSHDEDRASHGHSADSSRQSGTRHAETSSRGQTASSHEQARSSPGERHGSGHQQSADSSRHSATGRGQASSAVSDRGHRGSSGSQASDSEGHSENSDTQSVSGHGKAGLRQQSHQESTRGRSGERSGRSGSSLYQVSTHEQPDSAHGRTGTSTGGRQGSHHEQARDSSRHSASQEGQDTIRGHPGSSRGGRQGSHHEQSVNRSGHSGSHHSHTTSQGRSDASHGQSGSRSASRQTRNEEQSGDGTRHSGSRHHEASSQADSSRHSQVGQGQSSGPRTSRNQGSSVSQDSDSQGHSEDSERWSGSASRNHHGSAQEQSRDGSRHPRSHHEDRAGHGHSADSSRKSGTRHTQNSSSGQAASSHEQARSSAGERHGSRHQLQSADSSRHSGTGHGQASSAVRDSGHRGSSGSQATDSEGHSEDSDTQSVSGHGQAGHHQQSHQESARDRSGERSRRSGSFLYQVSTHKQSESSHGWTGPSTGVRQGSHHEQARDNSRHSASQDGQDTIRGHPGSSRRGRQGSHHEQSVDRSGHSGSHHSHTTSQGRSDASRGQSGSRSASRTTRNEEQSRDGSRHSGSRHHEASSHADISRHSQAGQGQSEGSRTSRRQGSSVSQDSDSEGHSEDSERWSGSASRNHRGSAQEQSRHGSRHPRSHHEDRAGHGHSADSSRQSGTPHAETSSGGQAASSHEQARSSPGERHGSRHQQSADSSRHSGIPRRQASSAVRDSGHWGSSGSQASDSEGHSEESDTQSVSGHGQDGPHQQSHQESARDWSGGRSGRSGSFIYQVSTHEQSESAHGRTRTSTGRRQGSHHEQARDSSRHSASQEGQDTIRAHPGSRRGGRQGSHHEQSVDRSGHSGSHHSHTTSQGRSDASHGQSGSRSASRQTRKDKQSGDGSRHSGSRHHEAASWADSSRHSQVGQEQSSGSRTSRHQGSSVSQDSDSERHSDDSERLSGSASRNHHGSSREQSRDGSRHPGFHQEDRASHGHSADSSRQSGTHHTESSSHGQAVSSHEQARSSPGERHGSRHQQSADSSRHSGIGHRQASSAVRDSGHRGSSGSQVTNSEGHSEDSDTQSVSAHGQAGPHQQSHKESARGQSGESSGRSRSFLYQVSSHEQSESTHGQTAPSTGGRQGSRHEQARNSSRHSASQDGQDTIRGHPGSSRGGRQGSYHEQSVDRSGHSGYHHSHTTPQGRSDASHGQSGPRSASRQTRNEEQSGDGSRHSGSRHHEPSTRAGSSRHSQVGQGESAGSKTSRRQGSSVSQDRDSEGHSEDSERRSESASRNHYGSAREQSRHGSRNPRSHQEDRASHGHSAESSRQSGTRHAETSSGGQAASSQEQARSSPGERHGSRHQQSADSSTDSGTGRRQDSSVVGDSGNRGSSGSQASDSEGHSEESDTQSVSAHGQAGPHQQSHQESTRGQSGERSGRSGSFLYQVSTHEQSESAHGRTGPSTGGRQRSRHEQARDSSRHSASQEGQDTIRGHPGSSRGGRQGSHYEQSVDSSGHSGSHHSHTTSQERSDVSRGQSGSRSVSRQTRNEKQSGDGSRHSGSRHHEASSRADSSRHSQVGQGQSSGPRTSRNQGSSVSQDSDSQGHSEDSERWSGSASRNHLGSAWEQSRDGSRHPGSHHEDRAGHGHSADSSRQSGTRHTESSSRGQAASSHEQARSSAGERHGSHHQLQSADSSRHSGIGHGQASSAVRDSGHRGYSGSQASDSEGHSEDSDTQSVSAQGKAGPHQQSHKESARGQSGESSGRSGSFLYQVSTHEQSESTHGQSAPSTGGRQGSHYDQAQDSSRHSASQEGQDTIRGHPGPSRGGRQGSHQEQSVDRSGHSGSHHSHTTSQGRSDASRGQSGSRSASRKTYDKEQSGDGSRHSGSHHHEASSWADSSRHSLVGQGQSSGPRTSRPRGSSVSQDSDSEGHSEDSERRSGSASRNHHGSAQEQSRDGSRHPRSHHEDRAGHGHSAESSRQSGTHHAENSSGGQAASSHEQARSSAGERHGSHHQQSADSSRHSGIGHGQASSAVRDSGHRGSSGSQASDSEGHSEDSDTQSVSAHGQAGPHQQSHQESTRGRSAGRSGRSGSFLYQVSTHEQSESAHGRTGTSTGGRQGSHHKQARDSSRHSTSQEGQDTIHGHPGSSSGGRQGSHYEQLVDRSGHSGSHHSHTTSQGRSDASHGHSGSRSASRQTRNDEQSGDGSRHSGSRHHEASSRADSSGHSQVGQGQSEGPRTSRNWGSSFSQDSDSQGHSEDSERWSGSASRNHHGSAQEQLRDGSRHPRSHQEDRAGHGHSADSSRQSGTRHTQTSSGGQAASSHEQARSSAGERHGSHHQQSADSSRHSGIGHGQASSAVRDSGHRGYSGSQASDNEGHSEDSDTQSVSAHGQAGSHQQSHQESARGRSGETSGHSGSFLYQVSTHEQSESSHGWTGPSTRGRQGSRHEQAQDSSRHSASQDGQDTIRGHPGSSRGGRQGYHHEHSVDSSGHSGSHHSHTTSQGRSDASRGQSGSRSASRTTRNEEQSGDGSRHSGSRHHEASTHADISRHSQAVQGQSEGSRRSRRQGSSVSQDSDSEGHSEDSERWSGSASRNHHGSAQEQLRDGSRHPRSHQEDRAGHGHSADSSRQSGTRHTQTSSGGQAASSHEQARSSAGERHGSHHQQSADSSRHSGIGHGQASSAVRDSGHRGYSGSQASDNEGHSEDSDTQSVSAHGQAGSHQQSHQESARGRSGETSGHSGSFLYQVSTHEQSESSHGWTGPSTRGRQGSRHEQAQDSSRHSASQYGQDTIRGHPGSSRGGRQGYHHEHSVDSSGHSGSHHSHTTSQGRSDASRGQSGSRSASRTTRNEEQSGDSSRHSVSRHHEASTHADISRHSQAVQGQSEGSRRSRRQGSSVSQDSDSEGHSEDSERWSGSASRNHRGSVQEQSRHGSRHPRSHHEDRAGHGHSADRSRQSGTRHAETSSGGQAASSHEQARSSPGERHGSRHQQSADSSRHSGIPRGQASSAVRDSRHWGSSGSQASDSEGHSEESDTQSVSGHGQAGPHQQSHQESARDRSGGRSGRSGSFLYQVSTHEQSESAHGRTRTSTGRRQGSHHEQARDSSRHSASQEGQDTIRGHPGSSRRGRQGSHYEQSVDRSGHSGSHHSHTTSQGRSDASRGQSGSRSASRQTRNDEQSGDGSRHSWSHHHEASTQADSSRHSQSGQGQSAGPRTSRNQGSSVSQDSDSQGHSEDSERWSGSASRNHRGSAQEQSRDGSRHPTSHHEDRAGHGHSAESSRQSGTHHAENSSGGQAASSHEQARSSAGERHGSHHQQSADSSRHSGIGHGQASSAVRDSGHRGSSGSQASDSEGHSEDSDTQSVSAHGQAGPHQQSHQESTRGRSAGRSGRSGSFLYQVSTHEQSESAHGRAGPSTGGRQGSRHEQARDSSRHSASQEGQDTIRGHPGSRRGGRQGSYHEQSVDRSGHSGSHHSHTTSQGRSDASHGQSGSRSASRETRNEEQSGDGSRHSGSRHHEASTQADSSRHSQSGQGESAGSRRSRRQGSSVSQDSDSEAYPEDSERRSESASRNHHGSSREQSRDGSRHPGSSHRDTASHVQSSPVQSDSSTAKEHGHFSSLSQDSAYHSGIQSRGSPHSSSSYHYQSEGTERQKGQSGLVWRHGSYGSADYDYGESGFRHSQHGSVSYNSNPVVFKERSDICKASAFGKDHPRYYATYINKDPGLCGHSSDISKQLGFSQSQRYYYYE
T7 sequence (Q92841 whole entry): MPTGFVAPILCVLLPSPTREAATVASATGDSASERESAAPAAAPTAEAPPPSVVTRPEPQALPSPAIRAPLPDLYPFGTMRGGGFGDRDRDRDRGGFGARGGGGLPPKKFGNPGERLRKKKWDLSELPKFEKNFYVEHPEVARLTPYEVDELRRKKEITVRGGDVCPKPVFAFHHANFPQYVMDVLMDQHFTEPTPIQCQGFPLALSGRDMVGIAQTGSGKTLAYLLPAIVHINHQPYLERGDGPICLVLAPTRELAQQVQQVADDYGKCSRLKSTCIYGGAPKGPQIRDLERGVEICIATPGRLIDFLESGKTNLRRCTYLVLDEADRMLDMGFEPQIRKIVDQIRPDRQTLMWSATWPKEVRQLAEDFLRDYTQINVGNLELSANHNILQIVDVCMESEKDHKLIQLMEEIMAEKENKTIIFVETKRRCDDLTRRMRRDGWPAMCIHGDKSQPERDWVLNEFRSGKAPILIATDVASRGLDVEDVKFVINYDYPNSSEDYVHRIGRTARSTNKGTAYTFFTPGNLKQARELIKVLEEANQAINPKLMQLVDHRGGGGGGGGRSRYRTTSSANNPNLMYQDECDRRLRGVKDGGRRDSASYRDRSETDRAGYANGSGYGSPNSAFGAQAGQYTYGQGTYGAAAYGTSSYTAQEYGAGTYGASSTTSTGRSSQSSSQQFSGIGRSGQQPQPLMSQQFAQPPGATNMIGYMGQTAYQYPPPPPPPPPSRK
T4 sequence (P67809 2-324 limits assumed): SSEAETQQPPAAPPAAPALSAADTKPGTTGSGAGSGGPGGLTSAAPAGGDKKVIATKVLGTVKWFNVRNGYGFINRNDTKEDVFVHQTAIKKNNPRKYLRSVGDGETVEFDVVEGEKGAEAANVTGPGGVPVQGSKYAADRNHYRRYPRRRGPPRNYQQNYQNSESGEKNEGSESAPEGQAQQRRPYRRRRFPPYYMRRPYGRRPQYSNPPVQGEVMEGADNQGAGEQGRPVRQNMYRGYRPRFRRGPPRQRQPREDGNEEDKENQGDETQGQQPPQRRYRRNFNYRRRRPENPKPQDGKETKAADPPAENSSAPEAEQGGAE

B1: C-terminal FLAG tagged B3GNT2 (enzyme, human, UniProt Q9NY97 1-397, looked up)
chain: MSVGRRRIKLLGILMMANVFIYFIMEVSKSSSQEKNGKGEVIIPKEKFWKISTPPEAYWNREQEKLNRQYNPILSMLTNQTGEAGRLSNISHLNYCEPDLRVTSVVTGFNNLPDRFKDFLLYLRCRNYSLLIDQPDKCAKKPFLLLAIKSLTPHFARRQAIRESWGQESNAGNQTVVRVFLLGQTPPEDNHPDLSDMLKFESEKHQDILMWNYRDTFFNLSLKEVLFLRWVSTSCPDTEFVFKGDDDVFVNTHHILNYLNSLSKTKAKDLFIGDVIHNAGPHRDKKLKYYIPEVVYSGLYPPYAGGGGFLYSGHLALRLYHITDQVHLYPIDDVYTGMCLQKLGLVPEKHKGFRTFDIEEKNKNNICSYVDLMLVHSRKPQEMIDIWSQLQSAHLKC
notes: FLAG-tagged ORF overexpressed in cells; pulled down from lysate with mouse anti-FLAG; also called C-FLAG B3GNT2; C-term flag; not shown: C-terminal FLAG tag
For the molecule B1, the “co-IP mass spectrometry count” value in experiment [1] stood at 22; in experiment [2], 3; in experiment [3] it was 5; in experiment [4] it was 9.

B2: C-terminal FLAG tagged B3GNT2 (enzyme, human, UniProt Q9NY97 1-397, looked up)
chain: B1 chain
notes: FLAG-tagged ORF overexpressed in A375 cells; pulled down from the lysate with mouse anti-FLAG; also called C-FLAG B3GNT2; C-term flag; not shown: C-terminal FLAG tag
Turning to B2, the “co-IP/MS count, C-term flag” value is 25 in experiment [5], 0 in experiment [6], 6 in experiment [7] and 30 in experiment [8].
